Experimental data taken from patent US20190275125A1 (H LUNDBECK A S, published 2019).

What was measured:
Assay in all cases: MSD inhibition assay, abeta 1-28 coated plates
[1] = biological target: Met-var24
[2] = biological target: T1, abeta 1-12 trimer construct (UniProt P05067 672-683; P05067 672-683; P05067 672-683)
T1 construct: range 1-12
T1 sequence (peptide): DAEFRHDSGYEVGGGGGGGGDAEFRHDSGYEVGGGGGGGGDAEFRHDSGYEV

[3] = biological target: Var24

Measured: binding result

B1: Biosimilar (BS) bapineuzumab (antibody, V domains shown)
VH: EVQLVESGGGLVQPGGSLRLSCAGSGFTFSNYGMSWVRQAPGKGLEWVASIRSGGGRTYYSDNVKGRFTISRENAKNSLYLQMNSLRAEDTAVYYCVRYDHYSGSSDYWGQGTLVTVSS
VL: DVVMTQSPLSLPVTLGQPASISCKSSQSLLDSDGKTYLNWLQQRPGQSPRRLIYLVSKLDSGVPDRFSGSGSGTDFTLKISRVEAEDVGVYYCWQGTHFPRTFGGGTKVEIKR
binds: all assays above
